# B1: Abl interactor 2 (Homo sapiens), Q9NYB9 (parent)
# chain: MAELQMLLEEEIPGGRRALFDSYTNLERVADYCENNYIQSADKQRALEETKAYTTQSLASVAYLINTLANNVLQMLDIQASQLRRMESSINHISQTVDIHKEKVARREIGILTTNKNTSRTHKIIAPANLERPVRYIRKPIDYTILDDIGHGVKWLLRFKVSTQNMKMGGLPRTTPPTQKPPSPPMSGKGTLGRHSPYRTLEPVRPPVVPNDYVPSPTRNMAPSQQSPVRTASVNQRNRTYSSSGSSGGSHPSSRSSSRENSGSGSVGVPIAVPTPSPPSVFPAPAGSAGTPPLPATSASAPAPLVPATVPSSTAPNAAAGGAPNLADGFTSPTPPVVSSTPPTGHPVQFYSMNRPASRHTPPTIGGSLPYRRPPSITSQTSLQNQMNGGPFYSQNPVSDTPPPPPPVEEPVFDESPPPPPPPEDYEEEEAAVVEYSDPYAEEDPPWAPRSYLEKVVAIYDYTKDKEDELSFQEGAIIYVIKKNDDGWYEGVMNGVTGLFPGNYVESIMHYSE
# partner: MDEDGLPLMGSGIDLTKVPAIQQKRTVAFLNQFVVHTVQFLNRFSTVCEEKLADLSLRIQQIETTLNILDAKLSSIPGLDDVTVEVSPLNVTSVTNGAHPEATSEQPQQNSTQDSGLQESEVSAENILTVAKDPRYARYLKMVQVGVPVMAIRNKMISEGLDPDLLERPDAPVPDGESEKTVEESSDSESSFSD
# B2: Abl interactor 2 (Homo sapiens), Q9NYB9 (parent)
# chain: B1 chain
# partner: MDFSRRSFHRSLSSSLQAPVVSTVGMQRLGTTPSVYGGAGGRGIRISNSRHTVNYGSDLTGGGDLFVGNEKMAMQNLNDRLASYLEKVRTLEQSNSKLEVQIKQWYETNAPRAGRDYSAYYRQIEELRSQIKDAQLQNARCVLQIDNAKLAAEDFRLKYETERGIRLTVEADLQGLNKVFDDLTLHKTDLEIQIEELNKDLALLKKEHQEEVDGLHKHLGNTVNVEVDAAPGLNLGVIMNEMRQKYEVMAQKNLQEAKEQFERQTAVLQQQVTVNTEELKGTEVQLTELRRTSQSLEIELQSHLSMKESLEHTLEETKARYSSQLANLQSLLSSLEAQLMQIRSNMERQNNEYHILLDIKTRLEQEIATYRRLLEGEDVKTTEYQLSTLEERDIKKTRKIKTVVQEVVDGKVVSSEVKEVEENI
# B3: Abl interactor 2 (Homo sapiens), Q9NYB9 (parent)
# chain: B1 chain
# partner: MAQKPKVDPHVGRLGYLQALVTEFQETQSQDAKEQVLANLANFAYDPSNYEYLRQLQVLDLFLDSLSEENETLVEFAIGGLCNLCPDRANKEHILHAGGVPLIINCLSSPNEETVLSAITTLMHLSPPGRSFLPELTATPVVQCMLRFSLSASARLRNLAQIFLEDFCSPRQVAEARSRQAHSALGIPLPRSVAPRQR
# B4: Ribosome production factor 1 (Homo sapiens), Q9H9Y2 (parent)
# chain: MAKAGDKSSSSGKKSLKRKAAAEELQEAAGAGDGATENGVQPPKAAAFPPGFSISEIKNKQRRHLMFTRWKQQQRKEKLAAKKKLKKEREALGDKAPPKPVPKTIDNQRVYDETTVDPNDEEVAYDEATDEFASYFNKQTSPKILITTSDRPHGRTVRLCEQLSTVIPNSHVYYRRGLALKKIIPQCIARDFTDLIVINEDRKTPNGLILSHLPNGPTAHFKMSSVRLRKEIKRRGKDPTEHIPEIILNNFTTRLGHSIGRMFASLFPHNPQFIGRQVATFHNQRDYIFFRFHRYIFRSEKKVGIQELGPRFTLKLRSLQKGTFDSKYGEYEWVHKPREMDTSRRKFHL
# partner: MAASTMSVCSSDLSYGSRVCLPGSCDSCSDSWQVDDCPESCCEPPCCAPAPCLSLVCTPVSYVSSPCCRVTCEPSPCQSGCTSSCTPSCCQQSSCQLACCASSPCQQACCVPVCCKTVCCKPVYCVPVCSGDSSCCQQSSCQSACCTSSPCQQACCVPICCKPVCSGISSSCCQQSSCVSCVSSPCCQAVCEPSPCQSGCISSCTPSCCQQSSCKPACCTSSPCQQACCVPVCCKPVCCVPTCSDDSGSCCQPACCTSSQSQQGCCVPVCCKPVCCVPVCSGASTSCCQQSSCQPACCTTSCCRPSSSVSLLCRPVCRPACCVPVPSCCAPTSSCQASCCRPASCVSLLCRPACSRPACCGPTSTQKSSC
# B5: Abl interactor 2 (Homo sapiens), Q9NYB9 (parent)
# chain: B1 chain
# partner: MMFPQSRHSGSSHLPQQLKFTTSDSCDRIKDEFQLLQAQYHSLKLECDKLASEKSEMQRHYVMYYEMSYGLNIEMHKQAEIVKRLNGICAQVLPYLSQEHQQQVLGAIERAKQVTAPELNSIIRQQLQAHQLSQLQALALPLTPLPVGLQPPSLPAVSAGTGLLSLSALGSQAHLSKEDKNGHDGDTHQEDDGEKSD
# B6: Acetylcholine receptor subunit gamma (Homo sapiens), P07510 (parent)
# chain: MHGGQGPLLLLLLLAVCLGAQGRNQEERLLADLMQNYDPNLRPAERDSDVVNVSLKLTLTNLISLNEREEALTTNVWIEMQWCDYRLRWDPRDYEGLWVLRVPSTMVWRPDIVLENNVDGVFEVALYCNVLVSPDGCIYWLPPAIFRSACSISVTYFPFDWQNCSLIFQSQTYSTNEIDLQLSQEDGQTIEWIFIDPEAFTENGEWAIQHRPAKMLLDPAAPAQEAGHQKVVFYLLIQRKPLFYVINIIAPCVLISSVAILIHFLPAKAGGQKCTVAINVLLAQTVFLFLVAKKVPETSQAVPLISKYLTFLLVVTILIVVNAVVVLNVSLRSPHTHSMARGVRKVFLRLLPQLLRMHVRPLAPAAVQDTQSRLQNGSSGWSITTGEEVALCLPRSELLFQQWQRQGLVAAALEKLEKGPELGLSQFCGSLKQAAPAIQACVEACNLIACARHQQSHFDNGNEEWFLVGRVLDRVCFLAMLSLFICGTAGIFLMAHYNRVPALPFPGDPRPYLPSPD
# partner: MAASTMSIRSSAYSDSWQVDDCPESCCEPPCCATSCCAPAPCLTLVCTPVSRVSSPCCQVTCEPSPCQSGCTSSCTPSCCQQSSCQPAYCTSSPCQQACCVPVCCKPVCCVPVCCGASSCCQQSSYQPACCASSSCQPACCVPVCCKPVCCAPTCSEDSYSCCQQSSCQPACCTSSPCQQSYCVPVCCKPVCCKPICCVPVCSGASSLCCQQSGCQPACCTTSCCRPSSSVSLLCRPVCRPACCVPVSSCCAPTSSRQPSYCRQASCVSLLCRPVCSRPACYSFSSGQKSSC
# B7: Abl interactor 2 (Homo sapiens), Q9NYB9 (parent)
# chain: B1 chain
# Variants of: B1
# Conditions: with wasc3_human WASHC3, Q9Y3C0
row,Variant,effect of a mutation on the interaction
1,E202K,with no effect

# Variants of: B2
# Conditions: with KRT20, P35900
row,Variant,effect of a mutation on the interaction
1,R373C,with no effect

# Variants of: B2
# Conditions: with KRT20, P35900
# Remark: another data set of the same source
row,Variant,effect of a mutation on the interaction
1,E202K,with no effect

# Variants of: B3
# Conditions: with armc7_human ARMC7, Q9H6L4
row,Variant,effect of a mutation on the interaction
1,E202K,with no effect

# Variants of: B4
# Conditions: with kr107_human KRTAP10-7, P60409
row,Variant,effect of a mutation on the interaction
1,P49T,with no effect

# Variants of: B5
# Conditions: with tle5_human TLE5, Q08117
row,Variant,effect of a mutation on the interaction
1,E202K,with no effect

# Variants of: B5
# Conditions: with tle5_human TLE5, Q08117
# Remark: another data set of the same source
row,Variant,effect of a mutation on the interaction
1,R373C,with no effect

# Variants of: B6
# Conditions: with kr109_human KRTAP10-9, P60411
row,Variant,effect of a mutation on the interaction
1,I448T,with no effect

# Variants of: B7
# Conditions: with ift20_human IFT20, Q8IY31
# Chain of ift20_human IFT20, Q8IY31 (Q8IY31 whole entry): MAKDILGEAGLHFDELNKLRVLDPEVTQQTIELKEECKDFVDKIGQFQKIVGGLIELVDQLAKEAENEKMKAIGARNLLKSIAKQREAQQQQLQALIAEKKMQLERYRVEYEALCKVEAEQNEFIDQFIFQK
row,Variant,effect of a mutation on the interaction
1,R373C,with no effect

# Variants of: B7
# Conditions: with k1h1_human KRT31, Q15323
# Chain of k1h1_human KRT31, Q15323 (Q15323 whole entry): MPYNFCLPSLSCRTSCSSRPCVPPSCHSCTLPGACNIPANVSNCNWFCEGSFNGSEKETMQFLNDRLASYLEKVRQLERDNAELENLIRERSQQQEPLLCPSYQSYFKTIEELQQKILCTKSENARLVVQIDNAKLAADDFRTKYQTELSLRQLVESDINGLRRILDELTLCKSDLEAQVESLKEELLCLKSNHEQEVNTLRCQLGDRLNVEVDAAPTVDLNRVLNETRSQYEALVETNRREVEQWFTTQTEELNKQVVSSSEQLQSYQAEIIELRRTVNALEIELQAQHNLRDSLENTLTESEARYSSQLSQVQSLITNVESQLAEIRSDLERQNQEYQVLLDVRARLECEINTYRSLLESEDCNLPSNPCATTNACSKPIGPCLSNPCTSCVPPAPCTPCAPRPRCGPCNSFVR
row,Variant,effect of a mutation on the interaction
1,R373C,with no effect

# Variants of: B7
# Conditions: with aapk2_human PRKAA2, P54646
# Chain of aapk2_human PRKAA2, P54646 (P54646 whole entry, looked up): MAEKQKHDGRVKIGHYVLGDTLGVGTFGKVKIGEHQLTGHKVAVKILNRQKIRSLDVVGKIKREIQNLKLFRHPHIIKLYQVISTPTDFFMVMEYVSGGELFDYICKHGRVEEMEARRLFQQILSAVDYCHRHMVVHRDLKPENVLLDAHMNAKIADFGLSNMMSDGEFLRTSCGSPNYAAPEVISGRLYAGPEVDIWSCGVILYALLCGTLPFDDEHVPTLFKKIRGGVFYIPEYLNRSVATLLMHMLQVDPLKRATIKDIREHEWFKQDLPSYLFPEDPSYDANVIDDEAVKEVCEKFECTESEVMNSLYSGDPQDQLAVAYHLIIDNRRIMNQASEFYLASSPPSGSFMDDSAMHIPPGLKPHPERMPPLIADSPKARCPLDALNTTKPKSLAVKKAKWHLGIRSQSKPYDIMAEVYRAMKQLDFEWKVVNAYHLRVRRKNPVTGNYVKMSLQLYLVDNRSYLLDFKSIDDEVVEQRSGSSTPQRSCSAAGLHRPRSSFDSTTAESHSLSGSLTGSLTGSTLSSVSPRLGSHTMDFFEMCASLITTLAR
row,Variant,effect of a mutation on the interaction
1,R373C,with no effect

# Variants of: B7
# Conditions: with stam2_human STAM2, O75886
row,Variant,effect of a mutation on the interaction
1,R373C,with no effect

# Variants of: B7
# Conditions: with aapk1_human PRKAA1, Q13131
row,Variant,effect of a mutation on the interaction
1,R373C,with no effect

# Variants of: B7
# Conditions: with hnrpk_human HNRNPK
row,Variant,effect of a mutation on the interaction
1,R373C,with no effect

# Variants of: B7
# Conditions: with vasp_human VASP
row,Variant,effect of a mutation on the interaction
1,R373C,with no effect

# Variants of: B7
# Conditions: with KRT15, P19012
# Chain of KRT15, P19012 (P19012 whole entry): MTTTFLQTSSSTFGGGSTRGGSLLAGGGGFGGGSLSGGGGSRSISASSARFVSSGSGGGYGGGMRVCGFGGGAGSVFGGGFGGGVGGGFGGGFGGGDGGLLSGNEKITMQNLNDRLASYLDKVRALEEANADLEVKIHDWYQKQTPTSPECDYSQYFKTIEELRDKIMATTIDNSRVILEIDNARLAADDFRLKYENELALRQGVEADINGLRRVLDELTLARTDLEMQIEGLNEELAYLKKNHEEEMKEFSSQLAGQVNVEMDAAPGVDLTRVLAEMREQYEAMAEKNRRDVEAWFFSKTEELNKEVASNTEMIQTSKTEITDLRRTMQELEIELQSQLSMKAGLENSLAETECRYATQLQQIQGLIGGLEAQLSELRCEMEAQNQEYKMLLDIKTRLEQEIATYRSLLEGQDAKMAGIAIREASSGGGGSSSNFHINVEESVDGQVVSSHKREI
row,Variant,effect of a mutation on the interaction
1,R373C,with no effect

# Variants of: B7
# Conditions: with nup62_human NUP62, P37198
# Chain of nup62_human NUP62, P37198 (P37198 whole entry): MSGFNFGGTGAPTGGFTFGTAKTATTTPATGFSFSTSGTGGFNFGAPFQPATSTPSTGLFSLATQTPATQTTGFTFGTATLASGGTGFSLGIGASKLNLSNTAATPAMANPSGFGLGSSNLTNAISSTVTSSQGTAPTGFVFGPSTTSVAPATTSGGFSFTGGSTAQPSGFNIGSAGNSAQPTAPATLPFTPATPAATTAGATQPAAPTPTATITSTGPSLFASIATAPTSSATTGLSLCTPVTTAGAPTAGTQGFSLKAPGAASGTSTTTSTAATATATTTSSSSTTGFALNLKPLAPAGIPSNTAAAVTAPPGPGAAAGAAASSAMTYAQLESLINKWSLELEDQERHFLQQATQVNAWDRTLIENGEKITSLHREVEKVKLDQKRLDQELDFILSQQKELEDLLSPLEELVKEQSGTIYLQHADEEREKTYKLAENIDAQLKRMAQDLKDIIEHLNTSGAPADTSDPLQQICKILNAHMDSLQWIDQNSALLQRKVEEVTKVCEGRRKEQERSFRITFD
row,Variant,effect of a mutation on the interaction
1,R373C,with no effect

# Variants of: B7
# Conditions: with KRT19, P08727
# Chain of KRT19, P08727 (P08727 whole entry): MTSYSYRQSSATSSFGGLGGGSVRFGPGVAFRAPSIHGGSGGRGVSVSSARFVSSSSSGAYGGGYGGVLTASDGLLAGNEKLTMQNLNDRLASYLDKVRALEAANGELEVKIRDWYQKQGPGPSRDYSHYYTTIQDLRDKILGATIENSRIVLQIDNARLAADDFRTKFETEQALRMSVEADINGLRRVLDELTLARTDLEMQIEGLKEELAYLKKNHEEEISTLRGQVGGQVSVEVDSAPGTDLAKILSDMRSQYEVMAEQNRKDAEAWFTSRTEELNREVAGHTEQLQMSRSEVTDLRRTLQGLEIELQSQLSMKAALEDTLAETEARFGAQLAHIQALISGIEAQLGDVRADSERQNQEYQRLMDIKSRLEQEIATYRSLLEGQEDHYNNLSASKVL
row,Variant,effect of a mutation on the interaction
1,R373C,with no effect

# Variants of: B7
# Conditions: with nck2_human NCK2, O43639
# Chain of nck2_human NCK2, O43639 (O43639 whole entry): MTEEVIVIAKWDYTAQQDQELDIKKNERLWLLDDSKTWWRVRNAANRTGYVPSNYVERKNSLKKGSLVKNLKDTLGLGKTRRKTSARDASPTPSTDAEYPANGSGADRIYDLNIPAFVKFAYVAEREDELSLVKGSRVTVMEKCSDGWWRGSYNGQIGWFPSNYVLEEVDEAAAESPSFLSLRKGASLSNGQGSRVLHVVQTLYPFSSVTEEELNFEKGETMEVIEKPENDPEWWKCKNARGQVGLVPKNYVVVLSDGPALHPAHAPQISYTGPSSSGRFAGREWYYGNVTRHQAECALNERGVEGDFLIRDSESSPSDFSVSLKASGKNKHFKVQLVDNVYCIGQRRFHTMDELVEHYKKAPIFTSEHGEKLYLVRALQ
row,Variant,effect of a mutation on the interaction
1,R373C,with no effect

# Variants of: B7
# Conditions: with hgs_human HGS
row,Variant,effect of a mutation on the interaction
1,R373C,with no effect

# Variants of: B7
# Conditions: with sdcb1_human SDCBP
row,Variant,effect of a mutation on the interaction
1,R373C,with no effect

# Variants of: B7
# Conditions: with tri32_human TRIM32, Q13049
row,Variant,effect of a mutation on the interaction
1,R373C,with no effect

# Variants of: B7
# Conditions: with pcm1_human PCM1, Q15154
# Chain of pcm1_human PCM1, Q15154 (Q15154 whole entry): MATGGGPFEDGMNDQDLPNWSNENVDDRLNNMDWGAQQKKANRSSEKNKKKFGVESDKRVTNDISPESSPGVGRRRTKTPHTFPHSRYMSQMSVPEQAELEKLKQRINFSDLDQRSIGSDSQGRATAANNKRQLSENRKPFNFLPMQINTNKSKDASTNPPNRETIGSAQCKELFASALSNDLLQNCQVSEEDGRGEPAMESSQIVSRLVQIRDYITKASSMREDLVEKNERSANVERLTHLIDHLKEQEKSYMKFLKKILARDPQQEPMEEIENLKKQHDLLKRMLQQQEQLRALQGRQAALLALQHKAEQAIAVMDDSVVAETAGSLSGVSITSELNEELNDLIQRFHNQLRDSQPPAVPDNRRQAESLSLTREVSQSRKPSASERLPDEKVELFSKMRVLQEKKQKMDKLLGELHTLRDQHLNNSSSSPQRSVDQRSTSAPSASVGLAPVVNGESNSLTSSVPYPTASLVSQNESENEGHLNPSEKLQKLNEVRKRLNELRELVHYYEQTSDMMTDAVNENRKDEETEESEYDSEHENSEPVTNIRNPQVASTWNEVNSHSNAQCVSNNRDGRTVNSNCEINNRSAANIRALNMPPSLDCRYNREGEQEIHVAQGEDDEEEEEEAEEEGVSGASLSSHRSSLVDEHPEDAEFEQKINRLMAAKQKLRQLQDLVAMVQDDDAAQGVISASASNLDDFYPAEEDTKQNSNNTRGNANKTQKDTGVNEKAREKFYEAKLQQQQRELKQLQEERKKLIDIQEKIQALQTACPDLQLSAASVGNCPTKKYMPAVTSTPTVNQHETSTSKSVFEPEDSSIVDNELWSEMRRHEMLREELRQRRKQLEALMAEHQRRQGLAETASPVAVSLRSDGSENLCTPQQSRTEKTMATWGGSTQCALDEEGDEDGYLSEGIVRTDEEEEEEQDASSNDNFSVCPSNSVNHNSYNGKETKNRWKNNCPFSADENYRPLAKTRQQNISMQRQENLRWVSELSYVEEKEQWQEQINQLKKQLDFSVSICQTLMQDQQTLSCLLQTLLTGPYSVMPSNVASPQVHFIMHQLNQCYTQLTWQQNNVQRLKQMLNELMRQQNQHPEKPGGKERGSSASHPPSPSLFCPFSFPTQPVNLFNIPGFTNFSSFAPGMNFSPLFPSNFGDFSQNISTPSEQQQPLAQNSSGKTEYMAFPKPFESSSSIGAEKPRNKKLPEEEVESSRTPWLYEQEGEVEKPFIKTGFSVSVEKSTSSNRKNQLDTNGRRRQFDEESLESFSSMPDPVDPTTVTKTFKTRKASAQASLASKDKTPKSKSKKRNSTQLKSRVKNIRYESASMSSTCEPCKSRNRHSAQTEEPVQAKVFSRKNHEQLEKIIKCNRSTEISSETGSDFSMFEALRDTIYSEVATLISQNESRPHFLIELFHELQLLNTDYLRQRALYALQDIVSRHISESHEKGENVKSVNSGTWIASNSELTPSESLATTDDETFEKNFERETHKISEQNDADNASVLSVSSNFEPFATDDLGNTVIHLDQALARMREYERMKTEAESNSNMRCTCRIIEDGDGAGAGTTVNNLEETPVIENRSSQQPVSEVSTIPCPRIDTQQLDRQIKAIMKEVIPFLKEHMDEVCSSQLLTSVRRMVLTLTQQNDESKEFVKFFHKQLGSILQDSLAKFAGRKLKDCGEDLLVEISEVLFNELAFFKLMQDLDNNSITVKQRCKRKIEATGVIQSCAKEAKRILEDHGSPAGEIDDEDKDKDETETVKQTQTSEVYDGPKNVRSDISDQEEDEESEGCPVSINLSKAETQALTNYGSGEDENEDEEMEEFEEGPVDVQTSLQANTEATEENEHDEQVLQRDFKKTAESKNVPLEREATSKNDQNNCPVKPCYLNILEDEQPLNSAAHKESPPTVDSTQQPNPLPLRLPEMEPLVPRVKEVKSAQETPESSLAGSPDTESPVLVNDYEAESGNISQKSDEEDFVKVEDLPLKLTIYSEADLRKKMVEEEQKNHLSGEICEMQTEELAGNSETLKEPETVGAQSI
row,Variant,effect of a mutation on the interaction
1,R373C,with no effect

# Variants of: B7
# Conditions: with vinc_human VCL
row,Variant,effect of a mutation on the interaction
1,R373C,with no effect

# Variants of: B7
# Conditions: with crx_human CRX
row,Variant,effect of a mutation on the interaction
1,R373C,with no effect

# Variants of: B7
# Conditions: with mr1l1_human MRFAP1L1, Q96HT8
# Chain of mr1l1_human MRFAP1L1, Q96HT8 (Q96HT8 whole entry): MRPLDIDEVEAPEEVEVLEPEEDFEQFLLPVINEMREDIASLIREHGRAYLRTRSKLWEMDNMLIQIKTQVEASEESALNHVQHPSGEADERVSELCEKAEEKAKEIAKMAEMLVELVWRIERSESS
row,Variant,effect of a mutation on the interaction
1,R373C,with no effect

# Variants of: B7
# Conditions: with efs_human EFS
row,Variant,effect of a mutation on the interaction
1,R373C,with no effect
